Results as given in the nanobody polyreactivity screen of Harvey et al. (2022).

Assay: yeast display, Sf9 membrane polyspecificity reagent, FACS + sequencing; frameworks hold sequencing errors
Method in brief: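 A nanobody's polyreactivity label depends on the gate it was sorted from. Yeast display cells were stained with 10% biotinylated, detergent-solubilized Sf9 membrane reagent for 1 hour at 4 °C, enriched on streptavidin microbeads and sorted by FACS. The low and high (top ~1%) gates were set on anti-HA fluorescence for expression and streptavidin fluorescence for reagent binding.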

Row | Sequence | polyreactivity (PSR sort gate)
1 | QVQLVETGGGLVQARGSLRLSCAASVRIFYYNAMGWYRQSPGKERELVAAITRSGSTNYAESVKGRFTISRDNAKNTVYLKMNSLKPEDTAVYYCAADSLKRYDYWGQGTQVTVSS | low polyreactivity
2 | QVQLVESGGGLVQAGGSLRLSCAASGLTFPSYAMGWYRQAPGKERELVASISSGGSTTYADSVKGRFTISRDNAKNTVYLQMNSLKPEDTAVYYCAAGRYVLRRGYYYWGQGTQVTVSS | high polyreactivity
3 | QGQLVESGGGLVQAGGSLRLSCAASGLIFYKYAMGWYRQAPGKERELVAVISWSGGSTYYADSVKGRFTISRDNAKNTVYLQMNRLKPEDTAVYYCAADTSYYRIRGWFGRVDYGYWGQGTQVTVSS | high polyreactivity
4 | QVQLVESGVGLVQAGGRLRLICAASGSTYDSAMGWYIQAPGKERELVASISWSDSSTYYADSVKGRFTISPDNAKNTVYLQMTSLKPEDSAVYYCNAEQGTRDSDYWGQGTQVTVSS | low polyreactivity
5 | QVHLVESCGGLVQAGGSLRLSCAASGSTIETYAMGWNRQAPGKDREMVATISLSGGRTYYADSVKGRFTISRDYAKNTVYLQMNSLKPEDTEVYYCNADGYGNVGGGDSWGQGTQVTVSS | low polyreactivity
6 | QVQLVESGGGLVQAGGSLRLICAASGSTILVYAMGCYRQAPWKEMELVAAITQIDGSTYYADSVKGRFTISRDNAKNTVYLQMNSLKPEDTAVFYCAARFFWTYEYDYWGQATQVTVSS | low polyreactivity
7 | QVQLVESGGGLVQAGGSLRLSCAASGITFGVYARGWYRQAPGKEREFVADIDRTRGSTYADSVKGRFTISRDNAMNTVYLQMNSLKPEDTAVYYCAAGWGFRFYYWYWGQGTHVTVSS | high polyreactivity
8 | QVQLVESGGGLVQAGGSLRLSCAASGFISAYYAMGWYRQAPGKERELVAAISWNGGRTFYADSVKGRFTISRDNAKNTVYLQMNSLKPEDTAVYYCAADGRLRGYGYWGQGTQVTVSS | high polyreactivity
9 | QVQLVESGGGLVQAGGSLRLSCAASGRTIKVYAMGWYRQAPGKERELVAAISYSGAGTRYADSVKGRFTISRDNAKNTVYLQMNSLKPEDTAVYYCNTDAWARVKRYEYWGQGTQVTVSS | low polyreactivity
10 | QVQLVESGGGLVQAGGSLRLSCAASGRTFFKYVMGWYRQAPGKERELVAAISYRSGSTYYADSVKGRFTISRDNAKNTVYLQMNSLKPEDTAVYYCAKEPPPVKGDYWGQGTQVTVSS | low polyreactivity
11 | QVQLVESVGGLVQAGGSLRLSCAASGRTFYFYAMGWYRQAPGKERELVASITSSGGNTYYADSVKGRFTISRDNAKNTVYLQMNSLKPEDTAVYYCAARWFPWLQWKRYVYWGQGTQVTVSS | low polyreactivity
12 | QVQLVESGGGLVQAGGSLRLSCAASGITFSRNAMGWYRQAPGKERELVAAINWTGGNTYYADSVKGRFTISRDNAKNTVYLQMNSLKPEDTAVYYCAADRRWFVWGLGYWGQGTQVTVSS | low polyreactivity
13 | QVQLVESGGGLVQAGGSLRFICAASGNTLNYYTMGWYRQAPGKERELVAAISSSGGSTYYADSVKGRFTISRDNAKNTVYLQMNSLQPEDTAVYYCNASVINEMNYWGQGTQVTVSS | low polyreactivity
14 | QVQLVESGGGLVQAGGSLRLSCAASGSIFNYYVMGWYRQAPGKERELVAGIRWNGGSTYYADSVKGRFTISRDNAKNTVYLQMNSLKPEDTAVYYCAAQAWWGYYSRGPMDYWGQGTQVTVSS | low polyreactivity
15 | QVQLVESGGGLDQAGGSLRLSCAASGRIFVFYTMAWYRQAPGKERDLVAAITKSGGSTYYADSVKGRFTISRDNAKNTVYFQMNSLKPEDTAVYYCATRDSPRTKNGYYYWGQGTQVTVSS | high polyreactivity
16 | QVQLVESGGGLFLAGGSLRLSCAASGSTFWYNMGWYRQAPGKDRELVAAISNSSGRTYYADSVKGRCTISRDNPKNTDYLQMKSLKPEDTAVYYSAADPKLGSRTGFYYWGQGTQVTVSS | high polyreactivity

Row | Sequence | polyreactivity (PSR sort gate)
17 | QVQLVESGGGLVQAGGSLCLSCAASGITFLFYAMGWYRQAPGKERELVAAITYSGGSTYYADSVKGRFTISRDNAKNTVYLQMNSLKPEDTAVYYCAADVWWSYYRYDYWGQGTQVTVSS | low polyreactivity
18 | QVQLVESGGGLVQAGGSLRLSCAASGSIFQCYTMGWSRQAPGKERELVAAISSTGSTNYADCVMGRFTISLDNAKNTVYLQMNSMNPEDTAVFYCAGVGTYLAGYQFDYWGQGTQVTVSS | low polyreactivity
19 | QVQLVESGGGLVQAGGSLRLSCAASGFIFKNYAMGWYRQAPGKERELVAAITSSGGNTYYADSVKGRFTISRDNAKNTVYLQMNSLKPEDTAVYYCNARFRTLYWGQGTQVTVSS | high polyreactivity
20 | QVQLVESGGGLVQAGGSLRLSCAASGSTFWFYALGWYRQAPGKERELVAAISSSGTTTYYADSVKGRFTISRDNAKNTVYLQINSLKPEDTAVSYCAAQYRGSYRTTYDYWGQCTQVTVSS | low polyreactivity
21 | QVQLVESGGGLVQAGGSLRLSCAASASTFVSNAMGWYRQAPGKERELVAAISKSGGSTYYADSVKGRFTISRDNAKNTVYLEMNSLKPEDTAVYYCSKYTAISFYGQYDYWGQGTQVTVSS | high polyreactivity
22 | QVQLVESGAGLVQAGGSLRISCAASGFTFQKNAMGWYRQSPGKERELVAAISSSGGSTYYADSVKGRFTISRDNAKNTVYLQMNSMKPDDTAVYYCNAVTLANKYNDYGYWGQGTQVTVSS | high polyreactivity
23 | QVQLVESGGGLVQAGGSLRLSCAASGSTFERNTMGWYRQAPGKERELVASISRGDGTYADSVKGRFTISRDNAKNTVYLQMNSLKPEDTAVYYCAAVQRESGSDYDYWGQGTQVTVSS | low polyreactivity
24 | QVQLVESGGGLVQAGGSLRLSCAASGSTFGSNAMGWYRQEPGKERELVAAITGGGTTSYADSVKGRFTISRDNAKNTVYLQMNSLKPEDTAVYYCNVLFADKSDYWGQGTQVTVSS | low polyreactivity
25 | QVQLVESGGGLVQAGGSLRLICAASGSIFRLYAMGWYRPAPGKEREFVARIRWRGGSTNYADSVKGRFTISRDNAKNTVYLQMNCLKPVDTAVYYCAAKQGTVRAHTYVAWYDYWGQGTQVTVSS | high polyreactivity
26 | QVQLVESGGGLVQAGGSLGLSCAASGFIFVRYAMGWYRQATGKERELVGAITSTGSTYYADSVKGRFTISRDKAKNTVYLQMNSLKPEDTAVYYCAAVSRTSITFGYYAEYDYWGQGTQVTVSS | low polyreactivity
27 | QVQLVESGGGLVQAGGSLRLSCAASGFIFVRYAMGWYRQAPGKERELVAAISKSGGRTYYADSVKGRFTISRDNAKNTVYLQMNSLKPEDTAVYYCAAYYYVGRVVSFDYWGQGTQVTVSS | high polyreactivity
28 | QDHLVESGGGLVQAGGSLRLSCAASGSTFGWYAMGWYRHAPGKERELVAVITRGGSTYYADSVKGHFTITLDNAKNTVYLQMNSLKPEDTAVYFCAARYRLPPYYYWGHGTQVTVSS | high polyreactivity
29 | QDHLVESGGGLVQAGGSLRVSCAASGLVYGQYAMGWYRPAPGKERELVAAINWSGGRTYYADSVKGRFTISRDNAKNTVYLQMNSLKPEDTAVYYCAADDPQDQDYENNYWGQGTQVNVSS | high polyreactivity
30 | QVQLVESGGGLVQAGGSLRLSCAASGSIFAPNAMGWYRQAPGKERELVAAITYGGGRTYYADSVKGRFTISRDNAKNTVYLQMNSLNPEDTAVYYCNALFSVRGYTWRSAAQDMDYWGQGTQVTVSS | high polyreactivity
31 | QVQLEESGGGLVQAGGSLRLSCAASGITFLNYAMGWYRQATGKERELVAAISWSGGRTYYADSVKGRFTISRDNAKNTVYLQMNSLKPEDTAVYYCAVRGSWYSEHNYWGQGTQVTVSS | high polyreactivity
32 | QVQLVESGGGLVQAGGSLRLSCAASGRTFFRNAMGWYRQAPGKERELVAAISSSGGSTYADSVKGRFTISRDNAKNTVYLQMNSLKPEVTAVYYCATRFQYTRTWYSRKYDYWGQGTQVTVSS | high polyreactivity
